Source: publication PMC9019252 (The Journal of Biological Chemistry, 2022)

B1: PABPC1 RRM2 including the RRM2-3 linker (residues 100-190) (domain or fragment)
chain: not shown
B2: PABPC1 RRM3 including the RRM3-4 linker (residues 191-289) (domain or fragment, human, UniProt P11940 191-289, looked up)
chain: TNVYIKNFGEDMDDERLKDLFGKFGPALSVKVMTDESGKSKGFGFVSFERHEDAQKAVDEMNGKELNGKQIYVGRAQKKVERQTELKRKFEQMKQDRIT
B3: Paip2A(25-83) (residues 25-83 of PABP-interacting protein 2A) (domain or fragment, human, UniProt Q9BPZ3 25-83, looked up)
chain: HEDDNPFAEYMWMENEEEFNRQIEEELWEEEFIERCFQEMLEEEEEHEWFIPARDLPQT
B4: PABPC1 RRM2/3 (residues 100-289) (domain or fragment, human)
chain: GPLGSNIFIKNLDKSIDNKALYDTFSAFGNILSCKVVCDENGSKGYGFVHFETQEAAERAIEKMNGMLLNDRKVFVGRFKSRKEREAELGARAKEFTNVYIKNFGEDMDDERLKDLFGKFGPALSVKVMTDESGKSKGFGFVSFERHEDAQKAVDEMNGKELNGKQIYVGRAQKKVERQTELKRKFEQMKQDRIT

What was measured:
[1] = target: B3; assay: ITC
[2] = target: B4; assay: ITC
[3] = target: B2; assay: ITC
[4] = target: B1; assay: ITC
[5] = target: B4; assay: NMR titration
[6] = target: PABPC1 RRM1/2/3/4 (residues 1-370) (human, UniProt P11940 1-370); assay: SPR
[7] = target: poly(A)-binding protein C1 (PABPC1), full length (human, UniProt P11940 1-636); assay: SPR

Row | dH [1] | stoichiometry N [1] | Binder | also measured
1 | -28.7 kcal/mol | 0.87 | B1 | 
2 | -43 kcal/mol | 0.87 | B2 | 
3 |  |  | B3 | Kd [2]: 1.9 nM; Kd [3]: 1300 nM; Kd [4]: 4000 nM
4 | -55 kcal/mol | 0.83 | B4 | 
5 |  |  | PABP-interacting protein 2A (Paip2A), full length (natural protein, human, UniProt Q9BPZ3 1-127, looked up) MKDPSRSSTSPSIINEDVIINGHSHEDDNPFAEYMWMENEEEFNRQIEEELWEEEFIERCFQEMLEEEEEHEWFIPARDLPQTMDQIQDQFNDLVISDGSSLEDLVVKSNLNPNAKEFVPGVKYGNI | binding result [5]: binds; binding result [6]: binds; binding result [7]: binds
